In paper PMC13541299:
Where “and” joins values, the source holds several entries; their conditions need not be identical. Identical values can stand only once.

Molecular target: biotinylated polymerization-blocked yeast αβ-tubulin, LR1 (β: T175R, V179R) (S. cerevisiae) (UniProt P09733)
Assay: BLI; biotinylated polymerization-blocked tubulin immobilised on Streptavidin (SA) biosensors (OctetR8), dipped into TOG2 at 2.3 to 200 nM; 100 mM PIPES pH 6.9, 10 mM NaCl, 1 mM MgCl2, 1 mM EGTA, 1 mM GTP, 0.1% BSA, 0.005% Triton X-100; association 300 s, dissociation 300 s; 1:1 model; steady-state amplitudes and global kinetic fit

Kd: 8.9 nM and 9.6 nM | koff: 0.03 s⁻¹ | kon: 3.2e+06 M⁻¹ s⁻¹
B1: Stu2-TOG2 (318–560) (domain or fragment)
chain: MLPEETILDKLPKDFQERITSSKWKDRVEALEEFWDSVLSQTKKLKSTSQNYSNLLGIYGHIIQKDANIQAVALAAQSVELICDKLKTPGFSKDYVSLVFTPLLDRTKEKKPSVIEAIRKALLTICKYYDPLASSGRNEDMLKDILEHMKHKTPQIRMECTQLFNASMKEEKDGYSTLQRYLKDEVVPIVIQIVNDTQPAIRTIGFESFAILIKIFGMNTFVKTLEHLDNLKRKKIEETVKTL
